Test results reported in publication PMC10631449 (Journal of medicinal chemistry, 2023).
Bridge positions count the residues as written; N and C are the ends. Square brackets hold non-standard residues; d marks the D form. Peptide text beside a SMILES is read from it. dPhe(4-I) = N[C@H](Cc1ccc(I)cc1)C(=O)O; 2Nal = N[C@@H](Cc1ccc2ccccc2c1)C(=O)O; hArg = N=C(N)NCCCC[C@H](N)C(=O)O; Cit = NC(=O)NCCC[C@H](N)C(=O)O; Nle = CCCC[C@H](N)C(=O)O; Orn = NCCC[C@H](N)C(=O)O; Dab = NCC[C@H](N)C(=O)O; Dap = NC[C@H](N)C(=O)O

Legend:
[1] = target: mouse melanocortin 1 receptor (mouse) (UniProt Q01727)
Chain of mouse melanocortin 1 receptor (mouse) (Q01727 whole entry): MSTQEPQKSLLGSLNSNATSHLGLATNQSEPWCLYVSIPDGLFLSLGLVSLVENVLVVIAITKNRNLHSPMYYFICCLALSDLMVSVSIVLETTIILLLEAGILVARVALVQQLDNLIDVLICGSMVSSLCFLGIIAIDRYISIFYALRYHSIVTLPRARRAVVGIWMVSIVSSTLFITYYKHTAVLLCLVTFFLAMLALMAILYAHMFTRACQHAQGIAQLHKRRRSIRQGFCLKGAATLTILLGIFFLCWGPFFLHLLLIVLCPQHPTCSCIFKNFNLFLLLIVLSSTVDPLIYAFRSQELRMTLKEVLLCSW

[2] = target: mouse melanocortin 3 receptor (mouse) (UniProt P33033)
Chain of mouse melanocortin 3 receptor (mouse) (P33033 whole entry): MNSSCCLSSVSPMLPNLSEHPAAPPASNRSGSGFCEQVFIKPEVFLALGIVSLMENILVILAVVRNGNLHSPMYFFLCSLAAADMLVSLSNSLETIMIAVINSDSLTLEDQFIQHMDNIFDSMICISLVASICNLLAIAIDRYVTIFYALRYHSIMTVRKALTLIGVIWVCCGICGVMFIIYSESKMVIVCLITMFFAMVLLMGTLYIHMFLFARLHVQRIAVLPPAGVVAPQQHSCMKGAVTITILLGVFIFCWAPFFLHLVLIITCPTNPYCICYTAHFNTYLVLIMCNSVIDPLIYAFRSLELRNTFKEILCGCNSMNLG

[3] = target: mouse melanocortin 4 receptor (mouse) (UniProt P56450)
Chain of mouse melanocortin 4 receptor (mouse) (P56450 whole entry): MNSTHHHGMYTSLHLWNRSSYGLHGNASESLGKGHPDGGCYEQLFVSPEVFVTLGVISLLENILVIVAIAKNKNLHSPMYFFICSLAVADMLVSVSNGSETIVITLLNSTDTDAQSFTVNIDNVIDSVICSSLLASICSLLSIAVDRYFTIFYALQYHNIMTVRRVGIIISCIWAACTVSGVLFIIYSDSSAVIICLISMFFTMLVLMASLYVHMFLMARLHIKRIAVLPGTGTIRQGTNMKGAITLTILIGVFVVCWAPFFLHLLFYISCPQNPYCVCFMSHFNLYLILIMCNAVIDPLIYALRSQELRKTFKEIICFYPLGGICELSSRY

[4] = target: mouse melanocortin 5 receptor (mouse) (UniProt P41149)
Chain of mouse melanocortin 5 receptor (mouse) (P41149 whole entry): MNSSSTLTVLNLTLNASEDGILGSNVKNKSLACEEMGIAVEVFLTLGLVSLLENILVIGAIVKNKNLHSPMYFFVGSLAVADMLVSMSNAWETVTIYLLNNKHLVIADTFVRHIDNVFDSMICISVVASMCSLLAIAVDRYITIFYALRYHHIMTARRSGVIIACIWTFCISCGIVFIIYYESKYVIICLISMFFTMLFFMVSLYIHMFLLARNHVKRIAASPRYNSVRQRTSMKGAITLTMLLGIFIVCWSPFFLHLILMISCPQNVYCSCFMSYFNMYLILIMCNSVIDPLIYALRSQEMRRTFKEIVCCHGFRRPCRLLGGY

mMC1R = mMC1R (Mus musculus, UniProt Q01727); conditions: cited from earlier work
Chain of mMC1R (Q01727 whole entry): as the sequence (Q01727 whole entry) above

K5-noggin mice = conditions: administered intracutaneously; cited from earlier work
[5] = Body weight after intrathecal; type: in vivo; conditions: t = 0, 24 and 48 h; 10 or 15 nmol/mouse IT
mMC3R = mMC3R (Mus musculus, UniProt P33033); experiment: AlphaScreen cAMP agonist assay, HEK293 cells stably expressing mMC3R; type: cell-based
Chain of mMC3R (P33033 whole entry): as the sequence (P33033 whole entry) above

MC1R = MC1R antagonist; cited from earlier work
hMC1R = conditions: read-out: antagonist Ki hMC1R; competitive antagonist; cited from earlier work
mMC5R = mMC5R (Mus musculus, UniProt P41149); conditions: read-out: antagonist Ki mMC5R; cited from earlier work
Chain of mMC5R (P41149 whole entry): as the sequence (P41149 whole entry) above

| Compound | agonist EC50, cAMP AlphaScreen on HEK293 cells expressing the receptor [2] [µM] | agonist EC50, cAMP AlphaScreen on HEK293 cells expressing the receptor [3] [µM] | agonist EC50, cAMP AlphaScreen on HEK293 cells expressing the receptor [4] [µM] | other results |
| --- | --- | --- | --- | --- |
| Ac-[dPhe(4-I)][dK][2Nal]R-NH2 | > 100 | > 100 | > 100 | agonist EC50, cAMP AlphaScreen on HEK293 cells expressing the receptor [1]: > 100 µM |
| Ac-[dPhe(4-I)]E[2Nal]R-NH2 | > 100 | > 100 | > 100 | agonist EC50, cAMP AlphaScreen on HEK293 cells expressing the receptor [1]: > 100 µM |
| Ac-[dPhe(4-I)]R[2Nal][dR]-NH2 | > 100 | > 100 | > 100 | agonist EC50, cAMP AlphaScreen on HEK293 cells expressing the receptor [1]: > 100 µM |
| H-YERFFNAF[Dap]Y-NH2 (lactam 2-9) | – | – | – | pA2 mMC1R (mMC1R): 5.92; Ki (mMC1R; read-out: antagonist Ki mMC1R): 1.2 µM; coloration of K5-noggin mice (K5-noggin mice): restored wild-type coloration |
| CC(=O)N[C@H](Cc1ccc(I)cc1)C(=O)N[C@@H](CCCNC(=N)N)C(=O)N[C@@H](Cc1ccc2ccccc2c1)C(=O)N[C@@H](CCCN)C(N)=O [Peptide 14, Ac-DPhe(pI)-Arg-Nal(2’)-Orn-NH2] (Ac-[dPhe(4-I)]R[2Nal][Orn]-NH2) | – | – | – | body weights compared to vehicle [5]: not statistically significantly different |
| CC(=O)N[C@H](Cc1ccc(I)cc1)C(=O)N[C@@H](CCCNC(=N)N)C(=O)N[C@@H](Cc1ccc2ccccc2c1)C(=O)N[C@@H](Cc1c[nH]cn1)C(N)=O [Peptide 12, Ac-DPhe(pI)-Arg-Nal(2’)-His-NH2] (Ac-[dPhe(4-I)]R[2Nal]H-NH2) | – | – | – | percent maximal stimulatory response (compared to NDP-MSH) observed at 100 μM, mMC3R (mMC3R): 35% @ 100 μM |
| Ac-[Nle]DW[dF][Nle]WK-NH2 | – | – | – | pA2 in the frog skin assay (MC1R): 8.4 |
| c[Gly-Cpg-DNal(2’)-Arg-Trp-Glu]-Val-Val-Gly-NH2 | – | – | – | Ki (hMC1R): 0.053 µM |
| Ac-[dPhe(4-I)]R[2Nal]E-NH2 | > 100 | > 100 | > 100 | agonist EC50, cAMP AlphaScreen on HEK293 cells expressing the receptor [1]: > 100 µM |
| Ac-Nle-c[Asp-(1-Me)His-DNal(2’)-Arg-DNal(2’)-Lys]-NH2 | – | – | – | Ki (mMC5R): 0.063 µM |

Second part, led by results:

| agonist EC50, cAMP AlphaScreen on HEK293 cells expressing the receptor [2] [µM] | agonist EC50, cAMP AlphaScreen on HEK293 cells expressing the receptor [3] [µM] | agonist EC50, cAMP AlphaScreen on HEK293 cells expressing the receptor [4] [µM] | Compound | other results |
| --- | --- | --- | --- | --- |
| > 100 | > 100 | > 100 | Ac-[dPhe(4-I)]R[2Nal][Cit]-NH2 | agonist EC50, cAMP AlphaScreen on HEK293 cells expressing the receptor [1]: > 100 µM |
| > 100 | > 100 | > 100 | Ac-[dPhe(4-I)]K[2Nal]R-NH2 | – |
| > 100 | > 100 | > 100 | Ac-[dPhe(4-I)][Cit][2Nal]R-NH2 | – |
| – | – | > 100 | Ac-[dPhe(4-I)]R[2Nal]R-NH2 | – |
| > 100 | > 100 | > 100 | Ac-[dPhe(4-I)]R[2Nal][dK]-NH2 | agonist EC50, cAMP AlphaScreen on HEK293 cells expressing the receptor [1]: > 100 µM |
| – | > 100 | > 100 | Ac-[dPhe(4-I)]R[2Nal]H-NH2 | – |
| > 100 | > 100 | > 100 | Ac-[dPhe(4-I)]R[2Nal][Dab]-NH2 | – |
| > 100 | > 100 | > 100 | Ac-[dPhe(4-I)]R[2Nal][Dap]-NH2 | – |
| > 100 | > 100 | > 100 | Ac-[dPhe(4-I)]R[2Nal]K-NH2 | – |
| > 100 | > 100 | > 100 | Ac-[dPhe(4-I)]R[2Nal][hArg]-NH2 | – |
| > 100 | > 100 | > 100 | Ac-[dPhe(4-I)]R[2Nal][Orn]-NH2 | – |
| > 100 | > 100 | > 100 | Ac-[dPhe(4-I)]H[2Nal]R-NH2 | – |
